Results published in paper PMC10784468 (Nature Communications, 2024).
Read-outs that look alike come from different tables or passages of the source. Positions of bridges follow the written chain, without caps; N, C: chain ends. Residues, ends and D or L forms follow the SMILES beside them. *: point of attachment. X1 = O=C(O)c1ccc(-c2c3nc(c(-c4ccc(C(=O)O)cc4)c4ccc([nH]4)c(-c4ccc(C(=O)*)cc4)c4nc(c(-c5ccc(C(=O)O)cc5)c5ccc2[nH]5)C=C4)C=C3)cc1; X2 = O=C(O)C/C(=C/C(=O)*)C(=O)O

Conditions: for Plasma Drug concentration: fluorescence; for Tumor Drug concentration: tumor lysate fluorescence
Protocol: Moreover, ex vivo fluorescence imaging of tumor and major organs was performed to investigate the dose-dependent tumor accumulation of Gi-F-CAA (Fig. 3e and Supplementary Fig. 25). […] Subsequently, time-dependent in vivo fluorescence imaging of EJ xenograft mice was conducted to investigate the in vivo biodistribution and metabolism of Gi-F-CAA after administrated with Gi-F-CAA (8 mg/kg in 100 μL PBS). […] Representative time-dependent fluorescence images of tumor tissue lysates and plasma were acquired after intravenous administration with Gi-F-CAA (8 mg/kg in 100 μL PBS) (Fig. 3h).
Firstly, A density of 5 × 10^6 EJ cell resuspended in Matrigel were subcutaneously injected into the right hind of mice to construct EJ xenograft model. When the tumor volume reached about 200–400 mm^3, the mice were administrated with Cy labeled Gi-F (8 mg/kg in 100 μL PBS), Cy labeled Gi-F-SA (8 mg/kg in 100 μL PBS) and Cy labeled Gi-F-CAA (8 mg/kg in 100 μL PBS) by intravenous injection for in vivo fluorescence imaging at different timepoints (10 min, 20 min, 40 min, 1 h, 2 h, 4 h, 8 h, 12 h and 24 h) with in vivo imaging system (IVIS). Meanwhile, the EJ xenograft mice were sacrificed for collecting major organs and tumors to evaluate the biodistribution of Gi-F-CAA.

[1] = EJ xenograft mice, i.v. 8 mg/kg, 0.017 h, mice 1
[2] = EJ xenograft mice, i.v. 8 mg/kg, 0.017 h, mice 2
[3] = EJ xenograft mice, i.v. 8 mg/kg, 0.017 h, mice 3
[4] = EJ xenograft mice, i.v. 8 mg/kg, 0.083 h, mice 1
[5] = EJ xenograft mice, i.v. 8 mg/kg, 0.083 h, mice 2
[6] = EJ xenograft mice, i.v. 8 mg/kg, 0.083 h, mice 3
[7] = EJ xenograft mice, i.v. 8 mg/kg, 0.167 h, mice 1
[8] = EJ xenograft mice, i.v. 8 mg/kg, 0.167 h, mice 2
[9] = EJ xenograft mice, i.v. 8 mg/kg, 0.167 h, mice 3
[10] = EJ xenograft mice, i.v. 8 mg/kg, 0.25 h, mice 1
[11] = EJ xenograft mice, i.v. 8 mg/kg, 0.25 h, mice 2
[12] = EJ xenograft mice, i.v. 8 mg/kg, 0.25 h, mice 3
[13] = EJ xenograft mice, i.v. 8 mg/kg, 0.5 h, mice 1
[14] = EJ xenograft mice, i.v. 8 mg/kg, 0.5 h, mice 2
[15] = EJ xenograft mice, i.v. 8 mg/kg, 0.5 h, mice 3
[16] = EJ xenograft mice, i.v. 8 mg/kg, 0.75 h, mice 1
[17] = EJ xenograft mice, i.v. 8 mg/kg, 0.75 h, mice 2
[18] = EJ xenograft mice, i.v. 8 mg/kg, 0.75 h, mice 3
[19] = EJ xenograft mice, i.v. 8 mg/kg, 1 h, mice 1
[20] = EJ xenograft mice, i.v. 8 mg/kg, 1 h, mice 2
[21] = EJ xenograft mice, i.v. 8 mg/kg, 1 h, mice 3
[22] = EJ xenograft mice, i.v. 8 mg/kg, 2 h, mice 1
[23] = EJ xenograft mice, i.v. 8 mg/kg, 2 h, mice 2
[24] = EJ xenograft mice, i.v. 8 mg/kg, 2 h, mice 3
[25] = EJ xenograft mice, i.v. 8 mg/kg, 4 h, mice 1
[26] = EJ xenograft mice, i.v. 8 mg/kg, 4 h, mice 2
[27] = EJ xenograft mice, i.v. 8 mg/kg, 4 h, mice 3
[28] = EJ xenograft mice, i.v. 8 mg/kg, 8 h, mice 1
[29] = EJ xenograft mice, i.v. 8 mg/kg, 8 h, mice 2
[30] = EJ xenograft mice, i.v. 8 mg/kg, 8 h, mice 3
[31] = EJ xenograft mice, i.v. 8 mg/kg, 12 h, mice 1
[32] = EJ xenograft mice, i.v. 8 mg/kg, 12 h, mice 2
[33] = EJ xenograft mice, i.v. 8 mg/kg, 12 h, mice 3
[34] = EJ xenograft mice, i.v. 8 mg/kg, 24 h, mice 1
[35] = EJ xenograft mice, i.v. 8 mg/kg, 24 h, mice 2
[36] = EJ xenograft mice, i.v. 8 mg/kg, 24 h, mice 3

CC(C)C[C@H](NC(=O)c1ccc(-c2c3nc(c(-c4ccc(C(=O)O)cc4)c4ccc([nH]4)c(-c4ccc(C(=O)O)cc4)c4nc(c(-c5ccc(C(=O)O)cc5)c5ccc2[nH]5)C=C4)C=C3)cc1)C(=O)N[C@@H](CCCCNC(=O)/C=C(/CC(=O)O)C(=O)O)C(=O)N[C@@H](CC(C)C)C(=O)N[C@@H](CCCCN)C(=O)N[C@@H](CC(C)C)C(=O)N[C@@H](CCCCNC(=O)/C=C(/CC(=O)O)C(=O)O)C(=O)NCC(=O)N[C@@H](C)C(=O)N[C@H]1CSSC[C@@H](C(=O)N2CCC[C@H]2C(=O)N[C@H](C(=O)O)C(C)C)NC(=O)[C@@H]2CCCN2C(=O)[C@H](Cc2ccc(O)cc2)NC(=O)[C@H](CC(C)C)NC(=O)[C@@H]2CCCN2C(=O)[C@H](CC(C)C)NC(=O)[C@H](Cc2c[nH]c3ccccc23)NC(=O)[C@H](CC(N)=O)NC1=O [Gi-F-CAA] (X1-LK(X2)LKLK(X2)GACNWLPLYPCPV-OH; disulfide 9-17; C-terminus assumed)
blood circulation half-life (t1/2) (EJ xenograft mice, i.v. 8 mg/kg in 100 μL PBS, plasma fluorescence, n = 3 mice): 1.03 ± 0.192 h
Plasma Drug concentration [1]: 33.86 µM
Plasma Drug concentration [2]: 27.32 µM
Plasma Drug concentration [3]: 28.25 µM
Plasma Drug concentration [4]: 31.76 µM
Plasma Drug concentration [5]: 25.29 µM
Plasma Drug concentration [6]: 26.44 µM
Plasma Drug concentration [7]: 24.34 µM
Plasma Drug concentration [8]: 19.45 µM
Plasma Drug concentration [9]: 20.15 µM
Plasma Drug concentration [10]: 19.65 µM
Plasma Drug concentration [11]: 15.52 µM
Plasma Drug concentration [12]: 16.27 µM
Plasma Drug concentration [13]: 15.69 µM
Plasma Drug concentration [14]: 12.64 µM
Plasma Drug concentration [15]: 13.24 µM
Plasma Drug concentration [16]: 14.64 µM
Plasma Drug concentration [17]: 11.89 µM
Plasma Drug concentration [18]: 12.38 µM
Plasma Drug concentration [19]: 13.02 µM
Plasma Drug concentration [20]: 10.61 µM
Plasma Drug concentration [21]: 11.06 µM
Plasma Drug concentration [22]: 7.79 µM
Plasma Drug concentration [23]: 8.53 µM
Plasma Drug concentration [24]: 9.07 µM
Plasma Drug concentration [25]: 6.64 µM
Plasma Drug concentration [26]: 6.59 µM
Plasma Drug concentration [27]: 6.96 µM
Plasma Drug concentration [28]: 3.65 µM
Plasma Drug concentration [29]: 4.12 µM
Plasma Drug concentration [30]: 4.41 µM
Plasma Drug concentration [31]: 2.66 µM
Plasma Drug concentration [32]: 3.28 µM
Plasma Drug concentration [33]: 3.5 µM
Plasma Drug concentration [34]: 1.38 µM
Plasma Drug concentration [35]: 1.99 µM
Plasma Drug concentration [36]: 2.17 µM
Tumor Drug concentration [1]: 11.93 µM
Tumor Drug concentration [2]: 13.59 µM
Tumor Drug concentration [3]: 9.61 µM
Tumor Drug concentration [4]: 13.61 µM
Tumor Drug concentration [5]: 15.1 µM
Tumor Drug concentration [6]: 10.98 µM
Tumor Drug concentration [7]: 14.15 µM
Tumor Drug concentration [8]: 15.1 µM
Tumor Drug concentration [9]: 11.74 µM
Tumor Drug concentration [10]: 15.43 µM
Tumor Drug concentration [11]: 16.04 µM
Tumor Drug concentration [12]: 12.46 µM
Tumor Drug concentration [13]: 17.54 µM
Tumor Drug concentration [14]: 16.74 µM
Tumor Drug concentration [15]: 14.43 µM
Tumor Drug concentration [16]: 16.03 µM
Tumor Drug concentration [17]: 16.19 µM
Tumor Drug concentration [18]: 13.02 µM
Tumor Drug concentration [19]: 14.49 µM
Tumor Drug concentration [20]: 15.3 µM
Tumor Drug concentration [21]: 11.94 µM
Tumor Drug concentration [22]: 12.9 µM
Tumor Drug concentration [23]: 13.97 µM
Tumor Drug concentration [24]: 10.6 µM
Tumor Drug concentration [25]: 10.23 µM
Tumor Drug concentration [26]: 11.8 µM
Tumor Drug concentration [27]: 8.38 µM
Tumor Drug concentration [28]: 7.25 µM
Tumor Drug concentration [29]: 8.28 µM
Tumor Drug concentration [30]: 6.04 µM
Tumor Drug concentration [31]: 5.72 µM
Tumor Drug concentration [32]: 6.55 µM
Tumor Drug concentration [33]: 4.61 µM
Tumor Drug concentration [34]: 4.93 µM
Tumor Drug concentration [35]: 5.65 µM
Tumor Drug concentration [36]: 3.95 µM
tumor tissue lysate signal relative to plasma (i.v. 8 mg/kg, from 1 h to 24 h): about 3 fold
level at time molar (mouse, in vivo, iv, 8 mg/kg): 16.2 µM
